Data taken from patent US20240417469A1 (CONCEPT TO MEDICINE BIOTECH, published 2024).
“And” between values parts separate entries of the source, which are not always exact repeats. Equal values may be shown once. Read-outs that look alike come from different tables or passages of the source.

Tests used:
human CD3 protein [1] = target: T1, human CD3 protein (human, UniProt P07766 23-126; P04234 22-105); assay: ELISA, plate-coated CD3
T1 construct: ELISA coating protein; also called Human CD3D & CD3E Heterodimer Protein

cynomolgus CD3 protein = target: T2, cynomolgus CD3 protein (cynomolgus); assay: ELISA, plate-coated CD3
T2 construct: ELISA coating protein

human CD3 protein [2] = target: T1, human CD3 protein; assay: ELISA, plate-coated CD3; remark: listed apart in the source
[3] = target: T3, recombinant CD3D&E protein (human CD3-his tag) (human, UniProt P04234 22-105; P07766 23-126, limits assumed); assay: SPR Biacore, Ab captured on Protein A
T3 construct: Analyte in Biacore; also called CD3D&E-His; CD3d&ε-His

[4] = target: T3, recombinant CD3D&E protein (human …); assay: SPR Biacore, Ab captured on Protein A; remark: listed apart in the source
[5] = target: T4, cynomolgus CD3 on cynomolgus PBMC (cynomolgus, UniProt Q95LI5 22-198; Q95LI8 22-171; Q95LI7 23-181); assay: FACS on cynomolgus PBMC, PE anti-human IgG Fc secondary, geometric mean fluorescence
T4 construct: whole, on cells; Native CD3 complex on cynomolgus T cells; also called cyno PBMC; cynoPBMCs

[6] = target: T5, human CD3 on cells (human PBMC; Jurkat TCR/CD3 NFAT reporter cells) (human, UniProt P07766 23-207; P04234 22-171; P09693 23-182); assay: cell-based or functional assay
[7] = target: T5, human CD3 on cells (human PBMC; Jurkat …); assay: FACS on human PBMC, PE anti-human IgG Fc secondary, geometric mean fluorescence
[8] = target: T5, human CD3 on cells (human PBMC; Jurkat …); assay: cell-based or functional assay; remark: listed apart in the source
Throughout, for Emax: unit not given here.

T3 sequence (P04234 22-105 limits assumed, chain 1 of 2): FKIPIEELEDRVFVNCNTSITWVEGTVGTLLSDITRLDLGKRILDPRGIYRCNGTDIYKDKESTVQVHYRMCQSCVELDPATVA
T3 sequence (P07766 23-126 limits assumed, chain 2 of 2): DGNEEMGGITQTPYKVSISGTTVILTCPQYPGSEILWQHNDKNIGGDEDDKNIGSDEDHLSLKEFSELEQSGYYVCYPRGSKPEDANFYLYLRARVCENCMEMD
T5 sequence (P07766 23-207, chain 1 of 3): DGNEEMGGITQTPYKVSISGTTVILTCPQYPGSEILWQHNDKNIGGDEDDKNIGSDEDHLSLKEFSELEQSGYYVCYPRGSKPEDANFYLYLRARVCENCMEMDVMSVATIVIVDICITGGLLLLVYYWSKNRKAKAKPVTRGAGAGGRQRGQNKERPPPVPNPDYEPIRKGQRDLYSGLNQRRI
T5 sequence (P04234 22-171, chain 2 of 3): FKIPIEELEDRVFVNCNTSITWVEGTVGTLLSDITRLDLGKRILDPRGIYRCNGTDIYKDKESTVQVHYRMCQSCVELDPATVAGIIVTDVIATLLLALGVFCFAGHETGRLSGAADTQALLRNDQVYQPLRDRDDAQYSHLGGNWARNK
T5 sequence (P09693 23-182, chain 3 of 3): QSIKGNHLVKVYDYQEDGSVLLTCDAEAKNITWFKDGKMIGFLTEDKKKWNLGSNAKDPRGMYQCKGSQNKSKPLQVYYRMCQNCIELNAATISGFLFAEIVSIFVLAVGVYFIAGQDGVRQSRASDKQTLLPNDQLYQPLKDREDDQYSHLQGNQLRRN
T2 sequence (Q95LI5 22-117, chain 1 of 2): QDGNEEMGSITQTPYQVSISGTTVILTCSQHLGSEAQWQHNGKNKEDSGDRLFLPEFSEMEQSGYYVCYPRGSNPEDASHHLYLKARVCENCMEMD
T2 sequence (Q95LI8 22-105, chain 2 of 2, further chain): as the sequence (P04234 22-105 limits assumed, chain 1 of 2) above, with I5V, N15K, I20V, S32T, D33N, I34N, T64A, S74N, V83L counted along it
T4 sequence (Q95LI5 22-198, chain 1 of 3): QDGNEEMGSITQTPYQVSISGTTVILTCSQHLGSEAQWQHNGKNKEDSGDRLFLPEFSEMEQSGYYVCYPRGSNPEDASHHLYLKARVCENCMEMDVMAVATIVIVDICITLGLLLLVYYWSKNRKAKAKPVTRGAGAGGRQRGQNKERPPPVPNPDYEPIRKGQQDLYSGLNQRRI
T4 sequence (Q95LI8 22-171, chain 2 of 3): as the sequence (P04234 22-171, chain 2 of 3) above, with I5V, N15K, I20V, S32T, D33N, I34N, T64A, S74N, V83L, H141R counted along it
T4 sequence (Q95LI7 23-181, chain 3 of 3): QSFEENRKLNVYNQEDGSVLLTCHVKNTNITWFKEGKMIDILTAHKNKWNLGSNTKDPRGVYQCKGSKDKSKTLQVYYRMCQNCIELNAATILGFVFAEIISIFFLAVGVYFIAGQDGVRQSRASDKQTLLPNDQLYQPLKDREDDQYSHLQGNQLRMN
T1 sequence (P07766 23-126 limits assumed, chain 1 of 2): as the sequence (P07766 23-126 limits assumed, chain 2 of 2) above
T1 sequence (P04234 22-105 limits assumed, chain 2 of 2): as the sequence (P04234 22-105 limits assumed, chain 1 of 2) above

Binder | EC50 (human CD3 protein [1]) [ng/mL] | EC50 (cynomolgus CD3 protein) [ng/mL] | EC50 (human CD3 protein [2]) | Kd [3] [nM] | koff [3] [s⁻¹] | kon [3] [M⁻¹ s⁻¹] | Kd [4] [nM] | koff [4] [s⁻¹] | kon [4] [M⁻¹ s⁻¹] | binding result [5] | % of SP34 [6] [%] | EC50 (read off the curve) [7] [nM] | Emax [6] | CD3-NFAT Activity by CD3 mAb [8] [% SP34]
192A7B9 chimeric mAb (antibody, V domains shown, Chimeric mAb) VH: QVQLKESGPGLVQPSQTLSLNCTVSGFSLTSYNVHWVRQPPGKGLEWMGRMRYNGDTSYNSALKSRLSISRDTSKNQVFLKMNSLQTDDTGTYYCTRGPRGGYYSALFDYWGQGVMVTVSS VL: DIQMTQSPSFLSASVGDRVTINCKASQNINRYLNWYQQKLGDAPKVLISIANSLQTGIPSRFSGSGSGTDFTLTISSLQPEDVATYFCLQHNSWYTFGAGTKLELK | 1.91 | 2.16 | 2.53 ng/mL and 2.85 ng/mL and 2.16 ng/mL and 2.3 ng/mL | 6.34 | 0.000442 | 69700 | 6.34 | 0.000442 | 69700 | binds |  |  |  | 
SP34 monoclonal antibody (antibody, human IgG1, lambda, N297A, V domains shown, also called SP34 (Biointron, B6762)) VH: EVQLVESGGGLVQPKGSLKLSCAASGFTFNTYAMNWVRQAPGKGLEWVARIRSKYNNYATYYADSVKDRFTISRDDSQSILYLQMNNLKTEDTAMYYCVRHGNFGNSYVSWFAYWGQGTLVTVSA VL: QAVVTQESALTTSPGETVTLTCRSSTGAVTTSNYANWVQEKPDHLFTGLIGGTNKRAPGVPARFSGSLIGDKAALTITGAQTEDEAIYFCALWYSNLWVFGGGTKLTVLG | 6.48 | 6.18 |  | 6.89 | 0.00292 | 424000 |  |  |  | binds | 100 | ~1 |  | 
Hu155A9B1-15 (antibody, V domains shown, humanized mAb) VH: EVQLQESGPGLVKPSETLSLTCTVSGGSISSYNVHWVRQPPGKGLEWMGRVRYNGDTSYNSALKSRLTISRDTSKNQFSLKLSSVTAADTAVYYCARGPYGGSSEPLFDYWGQGTMVTVSS VL: DIQMTQSPSSLSASVGDRVTITCKASQNINKYLNWFQQKPGKAPRLLIYTTNNLQTGIPSRFSGSGSGTDFTLTISSLQPEDFATYFCLQHNSGYTFGQGTKLEIK |  |  | 6.51 ng/mL |  |  |  | 53.5 | 0.0152 | 285000 |  | 20.1 |  | 1150 | ≤ 50
155A9B1 chimeric mAb (antibody, V domains shown, Chimeric mAb) VH: QVQLKESGPGLVQPSQTLSLTCTVSGFSLTSYNVHWVRQPPGKGLEWMGRVRYNGDTSYNSALKSRLSISRDTSKNQAFLKMNSLQIDDTGTYYCTRGPYGGSSEPLFDYWGQGVMVTVSS VL: DIKMTQSPSFLSASVGDRVTINCKASQNINKYLNWFQQKLGEAPRLLIYTTNNLQTGIPSRFSGSGSGTDFTLTISSLQPEDVATYFCLQHNSGYTFGAGTKLELK | 2.15 | 2.33 | 2.7 ng/mL and 2.54 ng/mL and 2.34 ng/mL | 36.1 | 0.00207 | 57200 | 36.1 | 0.00207 | 57200 | binds |  |  |  | 
Hu155A9B1-3 (antibody, V domains shown, humanized mAb) VH: EVQLQESGPGLVKPSETLSLTCTVSGGSISSYNVHWVRQPPGKGLEWMGRVRYNGDTSYNSALKSRLTISRDTSKNQFSLKLSSVTAADTAVYYCARGPYGGSSEPLFDYWGQGTMVTVSS VL: DIQMTQSPSSLSASVGDRVTITCKASQNINKYLNWYQQKPGKAPRLLIYTTNNLQTGVPSRFSGSGSGTDFTLTISSLQPEDFATYYCLQHNSGYTFGQGTKLEIK |  |  | 32.2 ng/mL |  |  |  | 18 | 0.00667 | 370000 |  | 12.8 |  | 648 | ≤ 50
153A6B1 chimeric mAb (antibody, V domains shown, Chimeric mAb of the hybridoma clone; also called 153A6B1C8) VH: QVQLKESGPGLVQPSQTLSLTCTVSGFSLTSYNIHWVRQPPGKGLEWMGRIRYNGDTSYNSALKSRLSISRDTSKNQVFLKMSSLQTDDTGTYYCTRGPYGGSREPLFDYWGQGVMVTVSS VL: DIKMTQSPSFLSAAVGDRVTINCKTSQNINKYLNWFQQKLGAAPKLLIYTTNNLQTGIPSRFSGSGSGTDFTLTISSLQPEDVATYFCLQHGSGYTFGAGTKLELK | 2.79 | 2.88 | 3.42 ng/mL and 2.91 ng/mL and 2.74 ng/mL | 8.69 | 0.000694 | 79900 | 8.69 | 0.000694 | 79900 | binds |  |  |  | 
Hu155A9B1-6 (antibody, V domains shown, humanized mAb) VH: EVQLQESGPGLVKPSETLSLTCTVSGFSLTSYNVHWVRQPPGKGLEWMGRVRYNGDTSYNSALKSRLTISRDTSKNQASLKLSSVTAADTAVYYCTRGPYGGSSEPLFDYWGQGTMVTVSS VL: DIQMTQSPSSLSASVGDRVTITCKASQNINKYLNWYQQKPGKAPRLLIYTTNNLQTGVPSRFSGSGSGTDFTLTISSLQPEDFATYYCLQHNSGYTFGQGTKLEIK |  |  | 4.16 ng/mL |  |  |  | 62.1 | 0.00593 | 95400 |  | 84.8 |  | 4300 | > 50
Hu155A9B1-16 (antibody, V domains shown, humanized mAb; also called 155z16) VH: EVQLQESGPGLVKPSETLSLTCTVSGGSISSYNVHWVRQPPGKGLEWMGRVRYNGDTSYNSALKSRLTISRDTSKNQFSLKLSSVTAADTAVYYCTRGPYGGSSEPLFDYWGQGTMVTVSS VL: DIQMTQSPSSLSASVGDRVTITCKASQNINKYLNWFQQKPGKAPRLLIYTTNNLQTGIPSRFSGSGSGTDFTLTISSLQPEDFATYFCLQHNSGYTFGQGTKLEIK |  |  | 7.28 ng/mL |  |  |  | 95.6 | 0.0165 | 173000 |  | 21.6 |  | 1240 | ≤ 50
Hu155A9B1-17 (antibody, V domains shown, humanized mAb) VH: EVQLQESGPGLVKPSETLSLTCTVSGFSISSYNVHWVRQPPGKGLEWMGRVRYNGDTSYNSALKSRLTISRDTSKNQASLKLSSVTAADTAVYYCTRGPYGGSSEPLFDYWGQGTMVTVSS VL: DIQMTQSPSSLSASVGDRVTITCKASQNINKYLNWFQQKPGKAPRLLIYTTNNLQTGIPSRFSGSGSGTDFTLTISSLQPEDFATYFCLQHNSGYTFGQGTKLEIK |  |  | 3.07 ng/mL |  |  |  | 43.6 | 0.00307 | 70400 |  | 76 |  | 4370 | > 50
Hu155A9B1-18 (antibody, V domains shown, humanized mAb) VH: EVQLQESGPGLVKPSETLSLTCTVSGFSLTSYNVHWVRQPPGKGLEWMGRVRYNGDTSYNSALKSRLTISRDTSKNQASLKLSSVTAADTAVYYCTRGPYGGSSEPLFDYWGQGTMVTVSS VL: DIQMTQSPSSLSASVGDRVTITCKASQNINKYLNWFQQKPGKAPRLLIYTTNNLQTGIPSRFSGSGSGTDFTLTISSLQPEDFATYFCLQHNSGYTFGQGTKLEIK |  |  | 1.95 ng/mL |  |  |  | 51.4 | 0.00291 | 56600 |  | 74 |  | 4250 | > 50
